Assays:
[1] = biological target: T1, rat PTHR1 (Rattus norvegicus, UniProt P25961); assay: flow cytometry on cells; HEK293 cell lines stably transfected with PTHRs, in suspension, incubated on ice with 100 nM VHH sortagged with Alexafluor647, pelleted, washed and analysed; conditions: one partner purified
T1 construct: parathyroid hormone receptor-1, rat; also called rPTHR1; source: HEK293, stably transfected (GR35), on cells

[2] = biological target: T2, PTHR1_(6E) (Homo sapiens PTHR1 with 14-residue …, UniProt Q03431, chimera); assay: flow cytometry on cells; dose response of staining with VHH-Alexafluor647 (median fluorescent intensity); cells in PBS, 1 h on ice; curves without plateau constrained to the plateau seen with other VHHs; conditions: one partner purified
T2 construct: PTHR1 from its start to the replaced 14-residue fragment of exon 2; replaces 14 residues of exon 2; PTHR1 from the end of the replaced fragment of exon 2 to its end; Made with the Q5 site-directed mutagenesis kit; whole receptor on cells; source: HEK293, stably transfected, on cells
T2 sequence (Q03431 whole entry, looked up, change not shown, the tested form may be a part): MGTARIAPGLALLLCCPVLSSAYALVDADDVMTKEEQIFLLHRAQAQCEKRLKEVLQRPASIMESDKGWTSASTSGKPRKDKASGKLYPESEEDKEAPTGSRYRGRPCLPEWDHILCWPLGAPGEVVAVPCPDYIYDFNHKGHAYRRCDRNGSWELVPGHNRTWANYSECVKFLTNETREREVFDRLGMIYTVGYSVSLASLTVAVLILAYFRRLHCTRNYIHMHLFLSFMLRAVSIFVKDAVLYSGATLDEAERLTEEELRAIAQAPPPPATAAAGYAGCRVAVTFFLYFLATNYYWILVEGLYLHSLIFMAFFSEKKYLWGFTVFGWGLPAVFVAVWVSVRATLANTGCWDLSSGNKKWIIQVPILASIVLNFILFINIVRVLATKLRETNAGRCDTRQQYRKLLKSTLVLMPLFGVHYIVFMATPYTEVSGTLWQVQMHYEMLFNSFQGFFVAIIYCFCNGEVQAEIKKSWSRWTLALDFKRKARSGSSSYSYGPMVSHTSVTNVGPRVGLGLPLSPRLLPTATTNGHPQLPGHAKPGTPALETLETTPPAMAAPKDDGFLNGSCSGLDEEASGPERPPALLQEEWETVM

T1 sequence (P25961 27-591): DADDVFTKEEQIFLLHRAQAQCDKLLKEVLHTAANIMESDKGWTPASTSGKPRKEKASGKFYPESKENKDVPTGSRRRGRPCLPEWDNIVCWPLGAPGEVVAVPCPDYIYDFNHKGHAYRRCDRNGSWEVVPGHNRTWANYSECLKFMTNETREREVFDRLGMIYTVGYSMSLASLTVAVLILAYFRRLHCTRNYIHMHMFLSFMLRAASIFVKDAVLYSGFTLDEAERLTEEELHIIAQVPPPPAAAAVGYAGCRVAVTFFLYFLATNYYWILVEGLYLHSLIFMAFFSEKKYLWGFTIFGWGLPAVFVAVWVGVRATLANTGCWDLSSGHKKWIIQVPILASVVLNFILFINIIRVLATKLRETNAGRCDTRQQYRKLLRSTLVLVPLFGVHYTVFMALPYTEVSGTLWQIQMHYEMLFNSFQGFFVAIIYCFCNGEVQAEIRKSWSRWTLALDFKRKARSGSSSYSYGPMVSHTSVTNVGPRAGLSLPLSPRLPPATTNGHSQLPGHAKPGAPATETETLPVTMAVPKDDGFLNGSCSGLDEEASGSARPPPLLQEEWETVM

Row | binding result [1] | EC50 [2] [nM] | Binder
1 | binds | – | VHH_(PTHR) (VHH, VHH 22A3; sortase motif of the expressed construct PelB-VHH-LPETGG-His6; on sortagging what follows LPET is replaced by the GGG of the label; Expressed as PelB-VHH-LPETGG-His6; also called 22A3; VHH_(PTHR)-tetramethylrhodamine; source: E. coli WK6 (pHEN6 vector), osmotic shock, purified (Ni-NTA), then sortagged; not shown: His6, C-terminal, cleaved) VHH: EVQLVESGGGLVQAGGSLRLSCAASGNIFANNIMGWYRQPPGKEREFVAHVSHDGDSMYAVSVKGRFAISRKDATNLYLQMNSLKPEDTAIYFCRLLNIPTQGRMEGFWGQGTQVTVSS
2 | – | < 10 | VHH6E (VHH, VHH05; sortase motif of the expressed construct PelB-VHH-LPETGG-His6; on sortagging what follows LPET is replaced by the GGG of the label; Recognises a 14-mer peptide of UBC6e; also called VHH05; source: E. coli WK6 (pHEN6 vector), osmotic shock, purified (Ni-NTA), then sortagged; not shown: His6, C-terminal, cleaved) VHH: QVQLQESGGGLVQPGGSLRLSCAASGFVFENSAMAWYRQAPGKERELIAVIGTTFIKLAESVKGRFTISRDNAKSTVYLQMNNLKPEDTAVYYCSKSGAYWGQGTQVTVSS
